From the nanobody polyreactivity screen of Harvey et al. (2022)

Test: yeast display, Sf9 membrane polyspecificity reagent, FACS + sequencing; frameworks hold sequencing errors
Summary of the method: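 Sorting gates, low and high (top ~1%), were placed on anti-HA fluorescence to track expression and on streptavidin fluorescence to track reagent binding. A clone's polyreactivity label is taken from the gate it came out of. The reagent was 10% biotinylated, detergent-solubilized Sf9 membrane, applied for 1 hour at 4 °C to galactose-induced yeast display cells.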

| Sequence | polyreactivity (PSR sort gate) |
| --- | --- |
| QVQIVETGGGLVQAGGSLRLSCDASGSIFPDYAKGWYRQAPRKERELLASISWDGGSTYYADSVKGRFTISRDNAKNTVYLQMNSLKPEDTAVYYCATEWLVGGGVTVDYWGQGTQVSVSS | low polyreactivity |
| QVQLAESGAGLVQAGGSLRLSCAASGFTFFPYAMGWYIQAPGKERELVAGITYNGGSTYYADSVKGRFTISRDNAKNTVYLQMNSLKPEDTAVYYCNAGRIGGFDWGQGTQVTVSS | low polyreactivity |
| QVQLAESGGGLVQAGGSLRLSCSASGSTFVAYAMGWYRQAPGKERELVAAITRSGGSTYYADSVKGRFTISRDNAKNTVYLQMNSLKPEDTAVFYCAARHYRSRDGYWGQGTQVTVSS | high polyreactivity |
| QVQLDESGGRLVQAGGSLRLSCAASGSIFKVNAMGWYRQAPGKERELVAVISKRGGSTYYADSVKGRFTISRDHAKNTVYLQMNSLKPEDTAVYYCAAGKAPPSLRWVARIGKYEYWGQGTQVTVSS | low polyreactivity |
| QVQLEDSGGGLFQAGGSLRLSCAASGNTFPVSYTMGWYIQAHRKEREFVAAISKDGGRTYYADSVKGRFTISRDNAKNTVYLQMNSLKPEDTAVYYCAARYSSSRGLSSEYWGQCTQVTVSS | high polyreactivity |
| QVQLEDSGGGLVQAGGSLPLSCAASGSIFVQYDMGWYIQAPGKERELVAAINDSGDITYYADSVKARFTISRDNAKNTIYLQMNSLKPEDTAVYYCAASAAYYGFYKSVTYDYWGQGTQVTVSS | low polyreactivity |
| QVQLEDSGGGLVQAGGSLRLICAASGSIIGTKAMGWYRQAPGKERELVAAIHWSGGTTYYADSVKGRFTISRDNAKNTVYFQMNSLKPDDTPVYDCATVFFVLPPTRFDAWGQGTLVTVSS | low polyreactivity |
| QVQLEDSGGGLVQAGGSLRLSCAASGFNFYYNAMGWYRKAPGKERELVAAISWSDGGTYYADSVKGRFTISRDNAKNTVYLQMNSLKPEDTAFYYCAADFRLRAYYPGYEYWGQGTQVTVSS | low polyreactivity |
| QVQLEDSGGGLVQAGGSLRLSCAASGFTILRYAMGWYRQAPGKERELVAAIDWYGGSTYYADSVKGRFTISRDNAKNTVFVQMNSLKPEDCAVYYCNARKINFPSRFNDWGQGTQVTVSS | low polyreactivity |
| QVQLEDSGGGLVQAGGSLRLSCAASGIIFPDYAMGWYRQAPGKQRELVADISFSAGSTYYADSVKGRFTISRDNAKNTVYLQMNSLKPEDTAVYYCNARPFLTVLYLFYGNNYDYWGQGTQVTVSS | low polyreactivity |
| QVQLEDSGGGLVQAGGSLRLSCAASGRTSVGYVMGWYRQAPGKERELVAAISASGGSTYYADSVKGRFTISRDNAKNTVYLQMNSLKPEDTAVYYCNAPVYVPYDYWGQGTQVTVSS | low polyreactivity |
| QVQLEDSGGGLVQAGGSLRLSCAASGSTFDNYAMGWYRQAPGKERELVAVITQSGGITFYADSVKGRFTISRDNAKNTVYLQMNSVKPEDTAVYYCNVELDRSWYYYWGQGTQVTVSS | low polyreactivity |
| QVQLEDSGGGLVQAGGSLRLSSPASGRIFGWYAMGWYRQAPGKERELVATISYSGASTYYADSVKGRFTISRDNAKNTVYLQMNSLKPEDTAVYYCAAVYHKNGCGDYSWGQGTQVTVSS | high polyreactivity |
| QVQLEESAGGLVQAGGSLRLICADSARILRQYARGWYRQAPGKERELVAAITSSGGSTYYADSVKGRFTISRDNEKNTVYLQMNSMKPEDTAVYYCNARLRGAKYDYWGQGTQVSVSS | high polyreactivity |
| QVQLEESAGGLVQAGGSLRLSCAASGRIFNYYAMGWYRQAPGKERELVATISSTGSSTYYADSVKGRFTISRDNAKNTVYLQMNSLKPEDTAVYYCAARYVRQYYRAEDYWGQGTQVTVSS | high polyreactivity |
| QVQLEESAGGLVQAGGSLRLSCAASGRSFNAYAMGWYRQAPGKERELVATISWRTGSTYYADSVKGRFTISRDNAKNTVYLQMNSLKPEDTAVYYCNAKVGSYGAQGYRFAYNYWGQGTQVTVSS | high polyreactivity |
| QVQLEESGGCLVQAGGSLRLSCAASGFTFRGYAMGWYSQAPGKERELVAAISKRGGSTYYADSVKGRFTISRDNAKNTVYLLMNSLKPADTAVYYCNADYYIVGPPYSPTREDYWGQGTQVTVSS | high polyreactivity |
| QVQLEESGGCLVQAGGSLRLSCAASGIIFWDNALGWYRQAPGKERELVASINYSGGSTYYADSVKGRFTNSRDNAKNTVYLQMNSLKPEDTAVYYCAARTVTLDDWDYAYDYWVQGTQVTVSS | low polyreactivity |
| QVQLEESGGCLVQAGGSLRLSCAASGRIITSNDMGWYRQAPGKERELVAAISKSGGRTYYADSVKGRFTISRDNAKNTVYLQMNSLKPEDTAVYYCAKDNYWGQGTQVTVSS | high polyreactivity |
| QVQLEESGGCLVQAGGSLRLSCAASGSIFRHNVMGWYRPAPGKERELVAAISGGGGRTYYADSVKGRFTISRDNAKNTVYLQMNSQKPEDTAVYYCNAVGPGLYQGDSTDSRYNYWGQGTQVTVSS | high polyreactivity |

| Sequence | polyreactivity (PSR sort gate) |
| --- | --- |
| QVQLEESGGCLVQAGGSLRLSCAASGSIFRIYAMGWYRQAPGKEREFVAAISSRGGRTYYAYSVKGRFTISRDNAKNTVYLQMNSLKPEDTAVYYCNARATRGSYYEYEYWGQGTQVTVSS | high polyreactivity |
| QVQLEESGGCLVQAGGSLRLSCAASGSTFSNYAMGWYRLAPGKESELVAAISYSGARTDYADSVKGRFTISRDNAKHTVYFQMHSLKPEDTAVYYCAAQVLSRHANPYAYYYWGQGTQVTVSS | high polyreactivity |
| QVQLEESGGCLVQAGGSLRLSCAATGITFYLYAMGWYRHAPGKERELVAAINSGGSTSYADSVKGRFTISRDNAKNTVYLQMNSLKTEDTADYYCNKLFLKFWGHQYGYWGQGTQVTVSS | high polyreactivity |
| QVQLEESGGGFVQAAGTLRLSCAPSGRIFLPYAMGWYRQAPGKEREFVAAITWGAGTTYYADSVKGRFTISRDNAKNTVYLQMNSLKPDDTAVYYCNARRRRAFSLYYYWGQGTQVTVSS | high polyreactivity |
| QVQLEESGGGFVQAGGCLRLSCAASGRIFYGYAMGWYRQAPGKERELVAAITRSSSTYYADSVKGRFTISRDNAKNTVYLQMNSQKPEDTAVYYCAAVMYATRPVYGFESWGLGTQVTVSS | high polyreactivity |
| QVQLEESGGGIVQAGGSLRLSCAASGSNYASNAMGWYRQAPRKERELVAAINSGDSTNYADSVKGRFTISRDNGKNTVYLQMNSLKTEDTAVYYCSRGLEERYDYWGQGTQVTVSS | low polyreactivity |
| QVQLEESGGGIVQAGGSLRLSCAASGSTFGVYAMGWYRQAPGKERELVAAISSSTGSTYYADSVKGRFTISRDNAKNTVYLQMNSLKPEYTAVYYCAAAGYGKVRGDYWGQGTQVTVSS | low polyreactivity |
| QVQLEESGGGLDQAGGSLRLSCAASGNIFYGNAMGWYIQAAGKERALVARISGTGRTNYADSVKGRFTISRDNAKNTVYLQMNSLKPEDTAVYYCAKYGYRSRYGYDYWGQGTQVTVTS | high polyreactivity |
| QVQLEESGGGLVHAGGSLPLSCAASGGTFYKYAMGSYRQAPGKERELVARISRCGSTYYADSVNGRFTISRDNAKNTVYLQMNSLKPEDTAVYYCAKRWFAGWPIVVPYNYWGQGTQVTVSS | high polyreactivity |
| QVQLEESGGGLVHAGGSLRLSCAASGSTFGYYTMGWYRQAPRKERELVAAITWSGGSTYYADSVKGRFTISLDNAKNTVYLQMNSLKPEDSAVYYCAADDYWTPFGYWGQGTQVTVSS | low polyreactivity |
| QVQLEESGGGLVLAGGSLRLSCAASGSTFYNYAKGCYREAPGKERELVAAITFTGGSTYYADSVKGRFTISRDNAKNTVYLQMNSLKPEDTAVYYCNRLGPLGDQQQYDYWGQGTQVTVSS | low polyreactivity |
| QVQLEESGGGLVQAGDSLRLSCDASGSTFPGYAMGWYRPAPGKERELVAAIYKRGGSTRYADSVKGRFTISRDNAKNTVYLQMNSLKPEDTAVYYCAASYSYSGSGGGYWGQGTQVTVSS | high polyreactivity |
| QVQLEESGGGLVQAGFSLRLSCAASGRIFVPNAMGWSRPAPGKEGELVAAIRWTGGSTYYADSVQGRFTISRDNAKNTVYLQMNSLKPEDTAVSYCAARYAARRLTYFWPQYARYDYWGQGTQVTVSS | high polyreactivity |
| QVQLEESGGGLVQAGGILRLSCAASGSIFIPNAMGWYRQAPGKERELVAAIRSGGSTYYADSVKGRFTISRDNAKNTVYLQMNSLKPEDTAVYYCAADTYTYYYYLARYYYWGQGTQVTVSS | low polyreactivity |
| QVQLEESGGGLVQAGGNLRLSSAASGSIFSFNAMGCYRQAPGKERELVAAISWRGASTYYADSVKGRFTISRDNAKNTVYLQMNSLKPEDTAVYYCAAESTFILQYSYIYYDGHYDYCGQGTQVTVSS | low polyreactivity |
| QVQLEESGGGLVQAGGRLRLSCAASGGTFRNNAMGWDRQAPGKEREVVAAISSSGTSTYYADSVKGRFTISRDNAKNTVYLQMNSLKPEDTAVYYCNADALGYPWWDHMDYWGQGTQVTVSS | low polyreactivity |
| QVQLEESGGGLVQAGGRLRLSCAASGRTFGRYAMGWDREPPGKERELVAAIRSGGSTYYADSVKGRLTISRDNAKNTVYFQMNSVKQADTAVYYCAADIARHLTGFAYYGLDYWGQGTQVTVSS | low polyreactivity |
| QVQLEESGGGLVQAGGRLRLSCAASGSIFDLNAMGRYRQAPGKERELVAAISQRGTRTYYADSVKGRFTISRDNAKNNVYLQMNSLIPEDTAVYYCAVGNGLSRYVYGDYEYWGQGTQVTVSS | high polyreactivity |
| QVQLEESGGGLVQAGGRLRLSCAASVSIFGVYTMGWYRPAPGKERELVAAIRGVGSTNYADSVKGRFTISRDNAKNTVYLQMKSLKTEDTAVYYCAARYAYGMWGQGTHVTVSS | low polyreactivity |
| QVQLEESGGGLVQAGGSHRLSCAASGIIFSKYAMGWYRPAPGKEREFGAAISQRGGRTYYADSVKGRFTISRDNAKNTVYLQMNSLNTEDTAVYYCAATGTGGVYPLDYGGQGTQVTVSS | high polyreactivity |
